Measured values as given in US20030135878.

How the values were obtained:
[1] = target: T1, Wheat alpha-amylase pI 5.23 inhibitor (spot #4), P01084
T1 chain: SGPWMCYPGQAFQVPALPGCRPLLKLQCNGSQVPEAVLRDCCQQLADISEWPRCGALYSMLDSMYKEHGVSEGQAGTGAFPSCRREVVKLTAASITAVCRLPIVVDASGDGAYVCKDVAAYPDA

[2] = target: wheat gliadin homolog of oat avenin (spot #2)
[3] = target: T2, Wheat alpha-amylase pI 6.66 inhibitor (spot #1), P01085
T2 chain: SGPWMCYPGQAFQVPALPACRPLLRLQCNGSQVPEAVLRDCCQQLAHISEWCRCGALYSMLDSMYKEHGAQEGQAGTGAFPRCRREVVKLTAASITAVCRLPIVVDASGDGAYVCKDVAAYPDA

[4] = target: T3, Wheat alpha-amylase/trypsin inhibitor (spot #3), P16851
T3 chain: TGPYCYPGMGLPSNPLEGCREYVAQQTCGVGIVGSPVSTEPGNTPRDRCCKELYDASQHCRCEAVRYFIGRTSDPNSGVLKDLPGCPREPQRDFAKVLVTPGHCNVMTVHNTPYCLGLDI

B1: wheat thioredoxin h (WTRXh), 13.5-kDa protein encoded by the 384-bp wtrxh fragment (protein)
chain: MAASAATATATAAAVGAGEVISVHSLEQWTMQIEEANAAKKLVVIDFTASWCGPCRIMAPIFADLAKKFPAAVFLKVDVDELKPIAEQFSVEAMPTFLFMKEGDVKDRVVGAIKEELTTKVGLHAAQ
- redox state by mBBr/2D IEF/SDS-PAGE, homozygote overexpressing thioredoxin h vs. null segregant [1]: five proteins were observed to be more highly reduced in extracts of the homozygote (spots 1-5, FIG. 29)
- redox state by mBBr/2D IEF/SDS-PAGE, homozygote overexpressing thioredoxin h vs. null segregant [2]: five proteins were observed to be more highly reduced in extracts of the homozygote (spots 1-5, FIG. 29)
- redox state by mBBr/2D IEF/SDS-PAGE, homozygote overexpressing thioredoxin h vs. null segregant [3]: five proteins were observed to be more highly reduced in extracts of the homozygote (spots 1-5, FIG. 29)
- redox state by mBBr/2D IEF/SDS-PAGE, homozygote overexpressing thioredoxin h vs. null segregant [4]: five proteins were observed to be more highly reduced in extracts of the homozygote (spots 1-5, FIG. 29)
